Like-named read-outs stand apart in the source and are kept apart here.
What was measured:
[1] = CD measurement of SAPD stability in plasma/serum environments; assay type: physicochemical, rat; settings: for change of CD absorptions versus aqueous solution: 200 μM in rat plasma, FBS, mice plasma, aged overnight
Protocol: CD measurement of SAPDs in physiological environments. Stock solutions of SAPDs were prepared at 2 mM and aged overnight. The solutions were diluted to 200 μM in 10% fetal bovine serum (FBS), 10% mice plasma and 10% rat plasma, aged overnight before CD measurement. To study the kinetic stability of the assembled SAPDs upon dilution, the stock solutions of SAPD 1 and 2 were diluted to 100 μM, 50 μM, 25 μM, 10 μM, and 5 μM in 10% rat plasma. The CD spectra were recorded at 5 min, 1 h, 4 h, and 12 h. All the CD spectra were recorded from 300 to 450 nm using a 1 mm path length quartz cell. The spectra were collected and normalized from ellipticity (mdeg) to molar ellipticity (deg·cm2·dmol^−1).
Stability of SAPDs in Protein Environments. The interactions of nanoparticles with serum proteins are known to impact the disassociation of supramolecular assemblies in biologically relevant environment. To assess the stability of assembled SAPDs in more complex biological media, we performed CD experiments to investigate their long-term stability in various serum environments. SAPDs solutions (2 mM) were diluted using rat plasma (FIG. 21C), fetal bovine serum (FBS), and mice plasma to yield a final concentration of 200 μM, which were then aged overnight before CD measurement was taken. […] We also performed experiments to assess their kinetic stability upon plasma dilution, mimicking the dissociation process of SPs after intravenous injection. Solutions of SAPD 1 and 2 (2 mM) were diluted to 100 μM, 50 μM, 25 μM, 10 μM, and 5 μM in rat plasma, and time-dependent CD spectra were recorded at 5 min, 1 h, 4 h, and 12 h. […] At 12 h, the decrease reached 22% and 33%, respectively.

[2] = tested on: HT-29 cells
Source text: Antitumor efficacy study of SAPDs at the same dose on a HT-29 tumor model. […] When the averaged tumor size reached 75-95 mm^3, mice were randomly divided into six groups. […] The tumor volumes and body weights were monitored and recorded every two or three days. The tumor volume was estimated by measuring the length and width with calipers and using the equation “tumor volume=(length×width^2)/2”. Mice were euthanized once the tumor volume reached 1000 mm^3.

[3] = Critical micellization concentration (CMC) via Nile Red encapsulation; assay type: physicochemical; settings: SAPDs, PBS buffer, Nile Red method
Protocol: Nile Red is a hydrophobic, solvatochromic dye that fluoresces intensely upon exposure to hydrophobic environments compared with its strongly quenched and red-shifted fluorescence in aqueous environments. The CMC of the TTs was determined by incubating these molecules at various concentrations with a fixed content of Nile Red. 10 μL of a 1 mM Nile Red stock solution in acetone was added to each microcentrifuge tube to be used, with the acetone allowed to evaporate in a dark area. TT solutions of various concentrations were subsequently added to the Nile Red containing tubes and equilibrated overnight. The emission spectrum for each sample was then recorded on a Fluorolog spectrofluorometer (Horiba Jobin Yvon Inc., Edison, N.J.), acquiring between 580 and 720 nm with an excitation wavelength of 550 nm.
CMC Measurement of SAPDs of TT1. We next assessed the CMC values for each of the designed SAPDs in aqueous solution. […] Experimentally, the CAC is often measured using spectrometry techniques such as circular dichroism (CD) to reveal the presence of intermolecular associations and packing at a much lower concentration. In the case reported here, the CMC values were measured in the PBS buffer using Nile Red as a probe, which fluoresces intensely in hydrophobic environments and is strongly quenched and red-shifted in aqueous media. […]

[4] = Drug release and chemical stability of SAPDs in PBS with or without GSH; assay type: physicochemical; settings: for prodrug degraded / conjugates remaining intact: 200 μM; for prodrug degraded: 37° C., 10 mM GSH, within 5 min; for conjugates remaining intact / remaining drugs: without GSH; for conjugates remaining intact: 120 h; for remaining drugs: 96 h
Protocol: Drug release and chemical stability studies of SAPDs. Drug release studies of four SAPDs were performed at a concentration of 200 μM in PBS buffer with or without the reducing agent glutathione (GSH). Briefly, 400 μM stock solutions of SAPDs in water were prepared and aged overnight. Stock solutions containing 2×PBS (20 mM) with or without 20 mM GSH were prepared 1 h before the experiment, and the pH was tuned to 7.4 with NaOH. The prodrug solutions were further diluted to 200 μM with 20 mM (2×) PBS buffer with or without GSH (20 mM) to give final solutions of 200 μM prodrug, 10 mM PBS and with or without 10 mM GSH. Three replicates of each SAPD were prepared with or without GSH and were incubated at 37° C. Samples with GSH were collected at 0 min, 5 min, 10 min, 15 min, 30 min, 1 h and 2 h, while samples without GSH were collected at 0 h, 6 h, 12 h, 24 h, 48 h, 72 h, 96 h and 120 h. To prevent further reaction after sample collection, the collected samples (50 μL each point) were acidified by adding 0.2 μL of 2M HCl, frozen with liquid nitrogen and stored at −30° C. The release profile was determined by analytical RP-HPLC using the following conditions: Varian Pursuit XRs C18 (5 μm, 150×4.6 mm); 362 nm detection wavelength; 1 mL/min flow rate; the gradient began at 15% to 85% acetonitrile containing 0.1% TFA by 15 min and back to initial gradient at 18 min. The calculated data points were plotted as a percentage of the total CPT concentration against time. Representative HPLC traces over time were also integrated for comparison.

[5] = TEM / cryo-TEM imaging of self-assembled nanostructures (dimensions); assay type: physicochemical; settings: 2 mM in water
[6] = SAPDs 10 mg/kg i.v. days 1, 5, 9, 13, irinotecan 100 mg/kg i.p. days 1, 8, 15
[7] = day 25, SAPDs 10 mg/kg (CPT equivalent) i.v. days 1, 5, 9, 13, irinotecan 100 mg/kg i.p. days 1, 8, 15

SMILES | change of CD absorptions versus aqueous solution [1] | median survival [2, 6] [days] | mean tumor volume [2, 7] [mm^3] | CMC [3] [µM] | prodrug degraded [4] [%] | conjugates remaining intact [4] [%] | remaining drugs [4] [%] | length of filaments (majority) [5] | mean tumor volume ([2]; mouse, in vivo) [mm^3] | median survival ([2]; mouse, in vivo) [days] | drop of CD absorption at 389 nm ([1]; 5 μM in rat plasma, 5 min) [%] | drop of CD absorption at 389 nm ([1]; 5 μM in rat plasma, 12 h) [%] | drop of CD absorption at 389 nm ([1]; 10 μM in rat plasma, 5 min) [%] | drop of CD absorption at 389 nm ([1]; 10 μM in rat plasma, 12 h) [%] | stability upon dilution over time ([1]; rat plasma, concentrations above 25 μM) | toxicity according to body weight change ([2]; 10 mg/kg i.v.) | diameter of supramolecular filaments [5]
CC[C@]1(OC(=O)OCCSSC[C@@H](NC(C)=O)C(=O)N[C@@H](CCCCNC(=O)[C@@H](CSSCCOC(=O)O[C@]2(CC)C(=O)OCc3c2cc2n(c3=O)Cc3cc4ccccc4nc3-2)NC(C)=O)C(=O)N[C@@H](CCCCNC(=O)CCOCCOCCOCCOCCOC)C(=O)N[C@@H](CCCCNC(=O)CCOCCOCCOCCOCCOC)C(=O)N[C@@H](CCCCNC(=O)CCOCCOCCOCCOCCOC)C(=O)N[C@@H](CCCCNC(=O)CCOCCOCCOCCOCCOC)C(N)=O)C(=O)OCc2c1cc1n(c2=O)Cc2cc3ccccc3nc2-1 [SAPD 2] | no noticeable changes | 46 | 255 | 10.1 | 45 | 87 | 86 | less than 400 nm |  |  |  |  |  |  |  |  | 
CC[C@]1(OC(=O)OCCSSC[C@@H](NC(C)=O)C(=O)N[C@@H](CCCCNC(=O)[C@@H](CSSCCOC(=O)O[C@]2(CC)C(=O)OCc3c2cc2n(c3=O)Cc3cc4ccccc4nc3-2)NC(C)=O)C(=O)N[C@@H](CCCCNC(=O)CCOCCOCCOCCOCCOC)C(=O)N[C@@H](CCCCNC(=O)CCOCCOCCOCCOCCOC)C(=O)N[C@@H](CCCCNC(=O)CCOCCOCCOCCOCCOC)C(=O)N[C@@H](CCCCNC(=O)CCOCCOCCOCCOCCOC)C(=O)N[C@@H](CCCCNC(=O)CCOCCOCCOCCOCCOC)C(=O)N[C@@H](CCCCNC(=O)CCOCCOCCOCCOCCOC)C(N)=O)C(=O)OCc2c1cc1n(c2=O)Cc2cc3ccccc3nc2-1 [SAPD 3] | some slight changes |  |  |  | 93 |  | 63 |  | 304 | 42 |  |  |  |  |  |  | 
CC[C@]1(OC(=O)OCCSSC[C@@H](NC(C)=O)C(=O)N[C@@H](CCCCNC(=O)[C@@H](CSSCCOC(=O)O[C@]2(CC)C(=O)OCc3c2cc2n(c3=O)Cc3cc4ccccc4nc3-2)NC(C)=O)C(=O)N[C@@H](CCCCNC(=O)CCOCCOCCOCCOCCOC)C(=O)N[C@@H](CCCCNC(=O)CCOCCOCCOCCOCCOC)C(=O)N[C@@H](CCCCNC(=O)CCOCCOCCOCCOCCOC)C(=O)N[C@@H](CCCCNC(=O)CCOCCOCCOCCOCCOC)C(=O)N[C@@H](CCCCNC(=O)CCOCCOCCOCCOCCOC)C(=O)N[C@@H](CCCCNC(=O)CCOCCOCCOCCOCCOC)C(=O)N[C@@H](CCCCNC(=O)CCOCCOCCOCCOCCOC)C(=O)N[C@@H](CCCCNC(=O)CCOCCOCCOCCOCCOC)C(N)=O)C(=O)OCc2c1cc1n(c2=O)Cc2cc3ccccc3nc2-1 [SAPD 4] | some slight changes |  |  |  | 92 |  | 61 |  | 286 | 47 |  |  |  |  |  |  | 
CC[C@]1(OC(=O)OCCSSC[C@@H](NC(C)=O)C(=O)N[C@@H](CCCCNC(=O)[C@@H](CSSCCOC(=O)O[C@]2(CC)C(=O)OCc3c2cc2n(c3=O)Cc3cc4ccccc4nc3-2)NC(C)=O)C(=O)N[C@@H](CCCCNC(=O)CCOCCOCCOCCOCCOC)C(=O)N[C@@H](CCCCNC(=O)CCOCCOCCOCCOCCOC)C(N)=O)C(=O)OCc2c1cc1n(c2=O)Cc2cc3ccccc3nc2-1 [TT 1] | no noticeable changes | 56 | 60 | 2.7 | 8 | 96 | 95 |  |  |  | 15 | 33 | 10 | 22 | highly stable | most toxicity | around 9 nm
